Data reported in patent publication CN117138036A.

What was measured:
混合人源IL-4、IL-5 (human) = 混合人源IL-4、IL-5 (human) (UniProt P05112); test: cell-based or functional assay
IL-4Rα [1] = target: IL-4Rα (UniProt P24394); test: cell-based or functional assay
IL-5 (human) = IL-5 (human) (UniProt P05113); test: cell-based or functional assay
IL-4Rα [2] = target: IL-4Rα (UniProt P24394); test: blocking ELISA: IL-4Rα coated, biotin-IL-4; hIgG is the control, fitted value as printed

Row | Substance | EC50, IL4:IL5=1:1混合诱导TF-1增殖, 板7 (混合人源IL-4、IL-5 (human)) [nM] | EC50, IL4:IL5=1:2混合诱导TF-1增殖, 板9 (混合人源IL-4、IL-5 (human)) [nM] | EC50, IL4:IL5=1:3混合诱导TF-1增殖, 板11 (混合人源IL-4、IL-5 (human)) [nM] | EC50, IL4:IL5=1:4混合诱导TF-1增殖, 板13 (混合人源IL-4、IL-5 (human)) [nM] | EC50, IL4:IL5=2:1混合诱导TF-1增殖, 板5 (混合人源IL-4、IL-5 (human)) [nM] | EC50, IL4:IL5=3:1混合诱导TF-1增殖, 板3 (混合人源IL-4、IL-5 (human)) [nM] | EC50, IL4:IL5=4:1混合诱导TF-1增殖, 板1 (混合人源IL-4、IL-5 (human)) [nM] | 试验窗口, IL4:IL5=1:1混合诱导TF-1增殖, 板7 (混合人源IL-4、IL-5 (human)) | 试验窗口, IL4:IL5=1:2混合诱导TF-1增殖, 板9 (混合人源IL-4、IL-5 (human)) | 试验窗口, IL4:IL5=1:3混合诱导TF-1增殖, 板11 (混合人源IL-4、IL-5 (human)) | 试验窗口, IL4:IL5=1:4混合诱导TF-1增殖, 板13 (混合人源IL-4、IL-5 (human)) | 试验窗口, IL4:IL5=2:1混合诱导TF-1增殖, 板5 (混合人源IL-4、IL-5 (human)) | 试验窗口, IL4:IL5=4:1混合诱导TF-1增殖, 板1 (混合人源IL-4、IL-5 (human)) | EC50, IL4:IL5=1:1混合诱导TF-1增殖, 板8 (混合人源IL-4、IL-5 (human)) [nM] | EC50, IL4:IL5=1:2混合诱导TF-1增殖, 板10 (混合人源IL-4、IL-5 (human)) [nM] | EC50, IL4:IL5=1:3混合诱导TF-1增殖, 板12 (混合人源IL-4、IL-5 (human)) [nM] | EC50, IL4:IL5=3:1混合诱导TF-1增殖, 板4 (混合人源IL-4、IL-5 (human)) [nM] | EC50, IL4:IL5=4:1混合诱导TF-1增殖, 板2 (混合人源IL-4、IL-5 (human)) [nM] | 试验窗口, IL4:IL5=1:1混合诱导TF-1增殖, 板8 (混合人源IL-4、IL-5 (human)) | 试验窗口, IL4:IL5=1:2混合诱导TF-1增殖, 板10 (混合人源IL-4、IL-5 (human)) | also measured
1 | dupilumab (antibody) | 0.57 | 0.899 | 0.343 | 0.156 | 0.452 | 0.448 | 0.813 | 1.77 倍 | 1.68 倍 | 1.53 倍 | 1.58 倍 | 1.6 倍 | 1.77 倍 |  |  |  |  |  |  |  | 
2 | Dupilumab+Mepolizumab(1:1混合) |  |  |  |  |  |  |  |  |  |  |  |  |  | 1.73 | 1.96 | 0.88 | 0.965 | 0.825 | 1.92 倍 | 1.62 倍 | EC50, IL4:IL5=1:4混合诱导TF-1增殖, 板14 (混合人源IL-4、IL-5 (human)): 0.395 nM; EC50, IL4:IL5=2:1混合诱导TF-1增殖, 板6 (混合人源IL-4、IL-5 (human)): 1.28 nM; 试验窗口, IL4:IL5=1:3混合诱导TF-1增殖, 板12 (混合人源IL-4、IL-5 (human)): 1.76 倍; 试验窗口, IL4:IL5=1:4混合诱导TF-1增殖, 板14 (混合人源IL-4、IL-5 (human)): 1.79 倍; 试验窗口, IL4:IL5=2:1混合诱导TF-1增殖, 板6 (混合人源IL-4、IL-5 (human)): 1.76 倍; 试验窗口, IL4:IL5=3:1混合诱导TF-1增殖, 板4 (混合人源IL-4、IL-5 (human)): 1.67 倍; 试验窗口, IL4:IL5=4:1混合诱导TF-1增殖, 板2 (混合人源IL-4、IL-5 (human)): 1.68 倍
3 | Mepolizumab (antibody) | 14.9 | 0.00104 | 0.00147 | 1.1 | 2.94 | 0.00132 | 0.0013 | 1.11 倍 | 1.06 倍 | 1.01 倍 | 1.14 倍 | 0.99 倍 | 1.02 倍 |  |  |  |  |  |  |  | 试验窗口, IL4:IL5=3:1混合诱导TF-1增殖, 板3 (混合人源IL-4、IL-5 (human)): 1.05 倍
4 | Human IgG1,kappa Isotype Control (antibody) |  |  |  |  |  |  |  |  |  |  |  |  |  | 14.7 | 0.00264 | 0.00193 | 0.000915 | 0.105 | 1.07 倍 | 0.99 倍 | 试验窗口, IL4:IL5=1:3混合诱导TF-1增殖, 板12 (混合人源IL-4、IL-5 (human)): 0.95 倍; 试验窗口, IL4:IL5=1:4混合诱导TF-1增殖, 板14 (混合人源IL-4、IL-5 (human)): 1.03 倍; 试验窗口, IL4:IL5=2:1混合诱导TF-1增殖, 板6 (混合人源IL-4、IL-5 (human)): 0.99 倍; 试验窗口, IL4:IL5=3:1混合诱导TF-1增殖, 板4 (混合人源IL-4、IL-5 (human)): 1.02 倍; 试验窗口, IL4:IL5=4:1混合诱导TF-1增殖, 板2 (混合人源IL-4、IL-5 (human)): 1.01 倍
5 | hIgG (antibody) |  |  |  |  |  |  |  |  |  |  |  |  |  |  |  |  |  |  |  |  | EC50, 中和IL-4诱导的TF-1细胞增殖 (control) (IL-4Rα [1]): 0.375 nM; EC50, 中和IL-13诱导的TF-1细胞增殖 (control) (IL-4Rα [1]): 0.131 nM; EC50, 中和IL-5诱导的TF-1细胞增殖 (control) (IL-5 (human)): 0.108 nM; EC50 (IL-4Rα [2]): 2.04 nM
